Experimental data published in US20190300577A1.

Assays:
[1] = molecular target: selectins on endothelium; experiment: cell-based or functional assay
[2] = molecular target: recombinant human P-selectin Fc chimera (human) (UniProt P16109); experiment: Biacore; biotinylated glycopeptide on streptavidin chip, P-sel-Ig flowed
[3] = molecular target: recombinant mouse P-selectin Fc chimera (mouse) (UniProt Q01102); experiment: as above
[4] = molecular target: recombinant human L-selectin Fc chimera (human) (UniProt P14151); experiment: flow cytometry; inhibition of human L-selectin Fc chimera binding to human U-937 cells
[5] = molecular target: recombinant human P-selectin Fc chimera (human) (UniProt P16109); experiment: flow cytometry; inhibition of human P-selectin Fc chimera binding to human U-937 cells
[6] = molecular target: recombinant mouse L-selectin Fc chimera (mouse) (UniProt P18337); experiment: flow cytometry; inhibition of mouse L-selectin Fc chimera binding to murine neutrophils
[7] = molecular target: recombinant mouse P-selectin Fc chimera (mouse) (UniProt Q01102); experiment: flow cytometry; inhibition of mouse P-selectin Fc chimera (2 µg/mL) binding to murine PMN
[8] = molecular target: recombinant human P-selectin Fc chimera (human) (UniProt P16109); experiment: Biacore; biotinylated glycopeptide on streptavidin chip, P-sel-Ig (2.5 to 60 µg/mL) flowed
[9] = molecular target: recombinant human P-selectin Fc chimera (human) (UniProt P16109); experiment: flow cytometry; inhibition of human P-selectin Fc chimera binding to human peripheral blood PMN
[10] = molecular target: recombinant human P-selectin Fc chimera (human) (UniProt P16109); experiment: flow cytometry; inhibition of human P-selectin Fc chimera binding to human peripheral blood monocytes
[11] = molecular target: recombinant mouse P-selectin Fc chimera (mouse) (UniProt Q01102); experiment: Biacore; biotinylated glycopeptide captured on a streptavidin chip, mP-sel-Ig flowed over (trace shown at 20 µg/ml) [lower middle panel 'mP-sel-Ig (20 µg/ml)' (E in the legend]
[12] = molecular target: recombinant human P-selectin Fc chimera (human) (UniProt P16109); experiment: comparator value given with the Biacore results; method not stated

recombinant human P-selectin Fc chimera (human), sequence (P16109 42-771, change not shown): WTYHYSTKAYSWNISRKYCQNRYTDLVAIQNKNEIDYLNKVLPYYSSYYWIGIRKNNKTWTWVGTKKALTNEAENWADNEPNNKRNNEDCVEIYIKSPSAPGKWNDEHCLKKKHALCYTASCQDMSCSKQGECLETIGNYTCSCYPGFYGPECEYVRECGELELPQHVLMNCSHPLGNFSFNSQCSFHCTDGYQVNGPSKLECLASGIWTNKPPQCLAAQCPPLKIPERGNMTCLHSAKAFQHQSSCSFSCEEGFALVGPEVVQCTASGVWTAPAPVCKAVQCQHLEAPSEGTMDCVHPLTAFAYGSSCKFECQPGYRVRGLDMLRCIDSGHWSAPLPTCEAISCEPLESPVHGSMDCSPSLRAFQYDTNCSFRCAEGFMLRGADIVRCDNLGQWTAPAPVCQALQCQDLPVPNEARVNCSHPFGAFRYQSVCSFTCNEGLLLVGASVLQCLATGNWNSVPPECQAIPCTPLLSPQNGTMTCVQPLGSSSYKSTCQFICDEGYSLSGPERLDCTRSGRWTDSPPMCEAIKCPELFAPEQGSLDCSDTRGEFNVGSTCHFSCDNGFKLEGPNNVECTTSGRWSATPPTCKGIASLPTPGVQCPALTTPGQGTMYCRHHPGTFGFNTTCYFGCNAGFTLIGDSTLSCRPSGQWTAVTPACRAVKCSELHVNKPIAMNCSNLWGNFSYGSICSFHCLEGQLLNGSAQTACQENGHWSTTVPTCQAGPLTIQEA
recombinant mouse P-selectin Fc chimera (mouse), sequence (Q01102 42-709, change not shown): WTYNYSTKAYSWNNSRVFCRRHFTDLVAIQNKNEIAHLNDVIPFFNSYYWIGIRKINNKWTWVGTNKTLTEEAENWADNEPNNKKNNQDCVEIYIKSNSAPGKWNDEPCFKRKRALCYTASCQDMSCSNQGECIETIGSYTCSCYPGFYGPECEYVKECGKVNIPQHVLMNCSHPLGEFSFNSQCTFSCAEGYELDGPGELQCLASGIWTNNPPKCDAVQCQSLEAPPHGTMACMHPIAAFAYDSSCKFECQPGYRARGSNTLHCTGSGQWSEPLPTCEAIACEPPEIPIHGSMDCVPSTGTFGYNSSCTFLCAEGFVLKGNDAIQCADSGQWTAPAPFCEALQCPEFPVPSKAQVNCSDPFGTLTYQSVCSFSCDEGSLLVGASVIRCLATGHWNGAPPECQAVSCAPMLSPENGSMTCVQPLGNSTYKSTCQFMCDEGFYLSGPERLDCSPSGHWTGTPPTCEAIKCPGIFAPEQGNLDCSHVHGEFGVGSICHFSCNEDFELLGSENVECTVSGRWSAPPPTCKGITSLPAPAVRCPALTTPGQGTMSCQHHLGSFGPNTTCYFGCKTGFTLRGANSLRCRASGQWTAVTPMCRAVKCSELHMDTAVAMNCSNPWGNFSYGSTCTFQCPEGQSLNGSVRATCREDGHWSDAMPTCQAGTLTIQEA
recombinant human L-selectin Fc chimera (human), sequence (P14151 39-332, change not shown): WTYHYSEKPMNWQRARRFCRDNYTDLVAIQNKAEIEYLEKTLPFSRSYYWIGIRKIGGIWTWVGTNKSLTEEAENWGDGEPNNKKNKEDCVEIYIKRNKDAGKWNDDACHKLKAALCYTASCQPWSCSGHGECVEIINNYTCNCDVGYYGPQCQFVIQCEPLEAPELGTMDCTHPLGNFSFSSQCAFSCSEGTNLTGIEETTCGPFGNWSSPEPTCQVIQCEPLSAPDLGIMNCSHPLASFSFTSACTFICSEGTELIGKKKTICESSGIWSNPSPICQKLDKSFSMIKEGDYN
recombinant mouse L-selectin Fc chimera (mouse), sequence (P18337 39-332, change not shown): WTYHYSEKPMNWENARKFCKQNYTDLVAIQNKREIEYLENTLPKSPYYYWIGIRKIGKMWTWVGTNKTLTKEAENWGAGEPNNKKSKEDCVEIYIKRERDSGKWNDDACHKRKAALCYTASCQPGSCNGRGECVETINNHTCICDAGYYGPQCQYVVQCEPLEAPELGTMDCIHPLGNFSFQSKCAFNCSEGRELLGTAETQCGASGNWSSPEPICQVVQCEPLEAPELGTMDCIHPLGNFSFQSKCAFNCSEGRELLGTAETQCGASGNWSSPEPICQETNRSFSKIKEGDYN

| mean leukocyte rolling velocity (intravital microscopy, murine cremaster venules, GSnP-6 IV) [1] [µm/s] | kon [2] [M⁻¹ s⁻¹] | fold difference of Kd against human P-selectin [3] [fold] | kon [3] [M⁻¹ s⁻¹] | IC50 [4] [µM] | IC50 [5] [µM] | IC50 [6] [µM] | IC50 [7] [µM] | Kd [8] [µM] | IC50 [9] [µM] | IC50 [10] [µM] | Kd [11] [µM] | Kd [12] [µM] | Substance |
| --- | --- | --- | --- | --- | --- | --- | --- | --- | --- | --- | --- | --- | --- |
| 74.9 | 310000 | 9 | 49000 | 30 | 8 | > 50 | 15 | 0.022 | 30 | 30 | 0.186 | – | GSnP-6 (peptide) |
| – | – | – | – | – | – | – | – | – | – | – | – | 0.073 | native PSGL-1 (from UniProt Q14242 42-412) (ligand) |
